Measurements as given in publication PMC8706527.

Legend:
[1] = target: recombinant human FcγRIIIa-Phe (human) (UniProt P08637); experiment: SPR
[2] = target: recombinant human neonatal Fc receptor (rhFcRn) (human) (UniProt P55899); experiment: SPR
recombinant human neonatal Fc receptor (rhFcRn) (human), sequence (P55899 whole entry, looked up, tested part not stated): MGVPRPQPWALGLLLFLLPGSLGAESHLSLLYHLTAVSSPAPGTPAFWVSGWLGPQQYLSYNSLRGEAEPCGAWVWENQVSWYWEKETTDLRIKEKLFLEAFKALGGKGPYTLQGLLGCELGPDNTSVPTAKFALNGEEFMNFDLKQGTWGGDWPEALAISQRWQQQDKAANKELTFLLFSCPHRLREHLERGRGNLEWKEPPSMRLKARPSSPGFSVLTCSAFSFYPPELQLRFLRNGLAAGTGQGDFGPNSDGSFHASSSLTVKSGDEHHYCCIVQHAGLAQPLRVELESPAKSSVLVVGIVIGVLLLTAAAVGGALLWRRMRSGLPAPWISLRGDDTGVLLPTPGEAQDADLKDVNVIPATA

recombinant human FcγRIIIa-Phe (human), sequence (P08637 17-208): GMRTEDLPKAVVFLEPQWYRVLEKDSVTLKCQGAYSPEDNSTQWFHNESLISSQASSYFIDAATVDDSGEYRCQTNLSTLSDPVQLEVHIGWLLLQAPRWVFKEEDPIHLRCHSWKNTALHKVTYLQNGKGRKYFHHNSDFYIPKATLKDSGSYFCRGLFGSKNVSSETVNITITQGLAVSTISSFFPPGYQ

Kd [1]: 1620 nM
Kd [2]: 195 nM
kon [2]: 986000 M⁻¹ s⁻¹
Substance: wild type IgG1 (modified ZRC-3308 mAb with wild type Fc) (antibody)
